Tests used:
Test in all cases: cell-based or functional assay
[1] = molecular target: HIV-1 Env of pseudovirus Du422.1 (HIV-1)
[2] = molecular target: HIV-1 Env of pseudovirus REJO4541.67 (HIV-1)
[3] = molecular target: HIV-1 Env of pseudovirus 0815.v3.c3 (HIV-1)
[4] = molecular target: HIV-1 Env of pseudovirus T278-50 (HIV-1)
[5] = molecular target: HIV-1 Env of pseudovirus ZM53M.PB12 (HIV-1)
[6] = molecular target: HIV-1 Env of pseudovirus 7030102001E5(Rev-) (HIV-1)
[7] = molecular target: HIV-1 Env of pseudovirus 89-F1_2_25 (HIV-1)
[8] = molecular target: HIV-1 Env of pseudovirus 6811.v7.c18 (HIV-1)
[9] = molecular target: HIV-1 Env of pseudovirus 246F C1G (HIV-1)
[10] = molecular target: HIV-1 Env of pseudovirus R3265.c06 (HIV-1)
[11] = molecular target: HIV-1 Env of pseudovirus HIV-16055-2.3 (HIV-1)
[12] = molecular target: HIV-1 Env of pseudovirus BJOX025000.01.1 (HIV-1)
[13] = molecular target: HIV-1 Env of pseudovirus AC10.0.29 (HIV-1)
[14] = molecular target: HIV-1 Env of pseudovirus SC422661.8 (HIV-1)
[15] = molecular target: HIV-1 Env of pseudovirus BJOX015000.11.5 (HIV-1)
[16] = molecular target: HIV-1 Env of pseudovirus 3817.v2.c59 (HIV-1)
[17] = molecular target: HIV-1 Env of pseudovirus 0260.v5.c36 (HIV-1)
[18] = molecular target: HIV-1 Env of pseudovirus BF1266.431a (HIV-1)
[19] = molecular target: HIV-1 Env of pseudovirus BJOX010000.06.2 (HIV-1)
[20] = molecular target: HIV-1 Env of pseudovirus CAAN5342.A2 (HIV-1)
[21] = molecular target: HIV-1 Env of pseudovirus X1193_c1 (HIV-1)
[22] = molecular target: HIV-1 Env of pseudovirus 6952.v1.c20 (HIV-1)
[23] = molecular target: HIV-1 Env of pseudovirus 1394C9G1(Rev-) (HIV-1)
[24] = molecular target: HIV-1 Env of pseudovirus 3016.v5.c45 (HIV-1)
[25] = molecular target: HIV-1 Env of pseudovirus X1254_c3 (HIV-1)
[26] = molecular target: HIV-1 Env of pseudovirus 231965.c01 (HIV-1)
[27] = molecular target: HIV-1 Env of pseudovirus 6480.v4.c25 (HIV-1)
[28] = molecular target: HIV-1 Env of pseudovirus WITO4160.33 (HIV-1)
[29] = molecular target: HIV-1 Env of pseudovirus Ce703010054_2A2 (HIV-1)
[30] = molecular target: HIV-1 Env of pseudovirus ZM197M.PB7 (HIV-1)
[31] = molecular target: HIV-1 Env of pseudovirus Du172.17 (HIV-1)
[32] = molecular target: HIV-1 Env of pseudovirus Q23.17 (HIV-1)
[33] = molecular target: HIV-1 Env of pseudovirus P0402_c2_11 (HIV-1)
[34] = molecular target: HIV-1 Env of pseudovirus THRO4156.18 (HIV-1)
[35] = molecular target: HIV-1 Env of pseudovirus T250-4 (HIV-1)
[36] = molecular target: HIV-1 Env of pseudovirus 191084 B7-19 (HIV-1)

PGT121 (antibody)
IC50 [1]: 0.039 µg/mL
IC80 [1]: 0.143 µg/mL
IC50 [2]: 4.77 µg/mL
IC80 [2]: > 50 µg/mL
IC50 [3]: 0.025 µg/mL
IC80 [3]: 0.111 µg/mL
IC50 [4]: > 50 µg/mL
IC80 [4]: > 50 µg/mL
IC50 [5]: < 0.001 µg/mL
IC80 [5]: 0.004 µg/mL
IC50 [6]: 0.009 µg/mL
IC80 [6]: 0.027 µg/mL
IC50 [7]: > 50 µg/mL
IC80 [7]: > 50 µg/mL
IC50 [8]: < 0.001 µg/mL
IC80 [8]: 0.001 µg/mL
IC50 [9]: 0.041 µg/mL
IC80 [9]: 0.14 µg/mL
IC50 [10]: > 50 µg/mL
IC80 [10]: > 50 µg/mL
IC50 [11]: 0.153 µg/mL
IC80 [11]: 4.8 µg/mL
IC50 [12]: > 50 µg/mL
IC80 [12]: > 50 µg/mL
IC50 [13]: 0.024 µg/mL
IC80 [13]: 0.073 µg/mL
IC50 [14]: 0.038 µg/mL
IC80 [14]: 0.177 µg/mL
IC50 [15]: > 50 µg/mL
IC80 [15]: > 50 µg/mL
IC50 [16]: 18.9 µg/mL
IC80 [16]: > 50 µg/mL
IC50 [17]: 0.053 µg/mL
IC80 [17]: 0.197 µg/mL
IC50 [18]: > 50 µg/mL
IC80 [18]: > 50 µg/mL
IC50 [19]: > 50 µg/mL
IC80 [19]: > 50 µg/mL
IC50 [20]: 0.007 µg/mL
IC80 [20]: 0.023 µg/mL
IC80 [21]: 0.086 µg/mL
IC50 [22]: 0.056 µg/mL
IC80 [22]: 0.42 µg/mL
IC50 [23]: 0.264 µg/mL
IC80 [23]: 1.95 µg/mL
IC50 [24]: > 50 µg/mL
IC80 [24]: > 50 µg/mL
IC50 [25]: 0.014 µg/mL
IC80 [25]: 0.08 µg/mL
IC50 [26]: > 50 µg/mL
IC80 [26]: > 50 µg/mL
IC50 [27]: < 0.001 µg/mL
IC80 [27]: 0.004 µg/mL
IC50 [28]: 0.334 µg/mL
IC80 [28]: 2.35 µg/mL
IC50 [29]: > 50 µg/mL
IC80 [29]: > 50 µg/mL
IC50 [30]: > 50 µg/mL
IC80 [30]: > 50 µg/mL
IC50 [31]: 0.033 µg/mL
IC80 [31]: 0.257 µg/mL
IC50 [32]: < 0.001 µg/mL
IC80 [32]: 0.005 µg/mL
IC50 [33]: 0.005 µg/mL
IC50 [34]: > 50 µg/mL
IC80 [34]: > 50 µg/mL
IC50 [35]: < 0.001 µg/mL
IC80 [35]: 0.005 µg/mL

PGT151 (antibody)
IC50 [1]: 4.6 µg/mL
IC80 [1]: > 50 µg/mL
IC50 [2]: 0.018 µg/mL
IC80 [2]: 0.119 µg/mL
IC50, titer in TZM.bl cells [3]: > 50 µg/mL
IC80, titer in TZM.bl cells [3]: > 50 µg/mL
IC50, titer in TZM.bl cells [4]: 0.13 µg/mL
IC80, titer in TZM.bl cells [4]: > 50 µg/mL
IC50 [5]: > 50 µg/mL
IC80 [5]: > 50 µg/mL
IC50 [6]: 0.001 µg/mL
IC80 [6]: 0.011 µg/mL
IC50, titer in TZM.bl cells [7]: 22.9 µg/mL
IC80, titer in TZM.bl cells [7]: > 50 µg/mL
IC50, titer in TZM.bl cells [8]: > 50 µg/mL
IC80, titer in TZM.bl cells [8]: > 50 µg/mL
IC50 [9]: > 50 µg/mL
IC80 [9]: > 50 µg/mL
IC50, titer in TZM.bl cells [10]: > 50 µg/mL
IC80, titer in TZM.bl cells [10]: > 50 µg/mL
IC50 [11]: 0.143 µg/mL
IC80 [11]: > 50 µg/mL
IC50, titer in TZM.bl cells [12]: > 50 µg/mL
IC80, titer in TZM.bl cells [12]: > 50 µg/mL
IC50 [13]: 0.007 µg/mL
IC80 [13]: 0.023 µg/mL
IC50 [14]: 0.005 µg/mL
IC80 [14]: 0.028 µg/mL
IC50, titer in TZM.bl cells [15]: > 50 µg/mL
IC80, titer in TZM.bl cells [15]: > 50 µg/mL
IC50, titer in TZM.bl cells [16]: > 50 µg/mL
IC80, titer in TZM.bl cells [16]: > 50 µg/mL
IC50 [17]: 0.427 µg/mL
IC80 [17]: > 50 µg/mL
IC50 [18]: > 50 µg/mL
IC80 [18]: > 50 µg/mL
IC50, titer in TZM.bl cells [19]: > 50 µg/mL
IC80, titer in TZM.bl cells [19]: > 50 µg/mL
IC50 [20]: 0.005 µg/mL
IC80 [20]: 0.038 µg/mL
IC50, titer in TZM.bl cells [21]: 0.004 µg/mL
IC80, titer in TZM.bl cells [21]: 0.027 µg/mL
IC50, titer in TZM.bl cells [22]: 49.2 µg/mL
IC80, titer in TZM.bl cells [22]: > 50 µg/mL
IC50 [23]: 0.022 µg/mL
IC80 [23]: 0.733 µg/mL
IC50, titer in TZM.bl cells [24]: 0.174 µg/mL
IC80, titer in TZM.bl cells [24]: 40.7 µg/mL
IC50, titer in TZM.bl cells [25]: 0.309 µg/mL
IC80, titer in TZM.bl cells [25]: > 50 µg/mL
IC50, titer in TZM.bl cells [26]: < 0.001 µg/mL
IC80, titer in TZM.bl cells [26]: 0.012 µg/mL
IC50 [28]: 0.002 µg/mL
IC80 [28]: 0.021 µg/mL
IC50 [29]: 0.013 µg/mL
IC80 [29]: 0.075 µg/mL
IC50 [30]: 0.003 µg/mL
IC80 [30]: 0.033 µg/mL
IC50 [31]: 0.003 µg/mL
IC80 [31]: 0.013 µg/mL
IC50 [32]: 0.007 µg/mL
IC80 [32]: 0.045 µg/mL
IC50, titer in TZM.bl cells [33]: < 0.001 µg/mL
IC80, titer in TZM.bl cells [33]: 0.004 µg/mL
IC50 [36]: 0.004 µg/mL
IC80 [36]: 0.016 µg/mL
IC50 [34]: > 50 µg/mL
IC80 [34]: > 50 µg/mL
IC50 [35]: 0.005 µg/mL
IC80 [35]: 0.014 µg/mL

Source: patent US20230002480A1
